Article PMC5353671, “A bacterial aromatic aldehyde dehydrogenase critical for the efficient catabolism of syringaldehyde” (Scientific Reports, 2017)
Each block holds one substance with its values, some of them ahead of it.

How the values were obtained:
[1] = tested on: T1, COc1cc(C=O)cc(OC)c1O; assay: HPLC, Hanes-Woolf plot; type: biochemical, Sphingobium sp. SYK-6; details: 500 μM NAD+, pH 7.0 phosphate buffer, 30 °C
T1 construct: calculated Mr 55,173; dimer 120 kDa
Text: (§1) HPLC, Hanes-Woolf plot on DesV (SLG_28320)

[2] = tested on: T2, COc1cc(C=O)ccc1O; assay: HPLC, Hanes-Woolf plot; type: biochemical, Sphingobium sp. SYK-6; details: 500 μM NAD+, pH 7.0 phosphate buffer, 30 °C
T2 construct: calculated Mr 55,173; dimer 120 kDa
Text: as §1

[3] = target: DesV (SLG_28320 gene product), His-tag fused (Sphingobium sp. SYK-6); assay: SEC; Superdex200 10/300GL, 50 mM KH2PO4-K2HPO4 buffer (pH 7.0) with 150 mM NaCl, 0.5 ml/min; native mass estimated and compared with the monomer size
[4] = target: LigV (vanillin dehydrogenase), His-tag fused (Sphingobium sp. SYK-6); assay: as above

Chain of DesV (SLG_28320) (Sphingobium sp. SYK-6) (chain, as listed by the source): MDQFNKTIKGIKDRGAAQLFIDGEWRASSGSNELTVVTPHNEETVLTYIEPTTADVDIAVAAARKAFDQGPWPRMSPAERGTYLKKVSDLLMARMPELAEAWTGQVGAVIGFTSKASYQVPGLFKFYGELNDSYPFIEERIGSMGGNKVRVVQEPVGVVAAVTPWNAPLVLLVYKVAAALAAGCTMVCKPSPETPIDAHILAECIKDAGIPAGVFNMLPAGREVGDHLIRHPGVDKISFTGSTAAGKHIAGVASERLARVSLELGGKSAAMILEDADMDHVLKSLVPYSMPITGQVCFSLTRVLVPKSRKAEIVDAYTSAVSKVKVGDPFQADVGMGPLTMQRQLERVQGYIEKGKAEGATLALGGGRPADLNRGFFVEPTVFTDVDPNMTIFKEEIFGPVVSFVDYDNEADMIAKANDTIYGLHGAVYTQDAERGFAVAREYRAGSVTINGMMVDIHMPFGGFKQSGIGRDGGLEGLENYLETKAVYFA

Substance: DesV (SLG_28320) (Sphingobium sp. SYK-6)
- Km [1]: 0.48 ± 0.03 µM
- Vmax [1]: 1.08 µmol/min/mg
- kcat [1]: 0.99 ± 0.01 s⁻¹
- kcat/Km [1]: 2.1e+06 ± 93000 M⁻¹ s⁻¹
- Km [2]: 0.47 ± 0.04 µM
- Vmax [2]: 0.85 µmol/min/mg
- kcat [2]: 0.79 ± 0.01 s⁻¹
- kcat/Km [2]: 1.7e+06 ± 140000 M⁻¹ s⁻¹

- stoichiometry N [3]: 2
Substance: DesV (SLG_28320 gene product), His-tag fused (enzyme)

- stoichiometry N [4]: 4
Substance: LigV (vanillin dehydrogenase), His-tag fused (enzyme)
